Biological target: YjfP (K. pneumoniae)
Assay: crystal structure

## YjfP (enzyme)
  stoichiometry N: 2
